Test results published in patent US20260265789A1, “METHOD FOR IMPROVING 2, 4 DIHYDROXYBUTYRIC ACID PRODUCTION AND YIELD” (ADISSEO FRANCE S.A.S, priority 2023, published 2026).

Experiments:
[1] = molecular target: T1, Escherichia coli pyruvate aldolase Eda (E.C. 4.1.2.14) (Escherichia coli, UniProt P0A955); assay: Kinetic characterization of pyruvate aldolase on OHB (coupled LdhA/NADH assay, 340 nm); assay type: biochemical; conditions: Tris-HCl 50 mM pH 7.5, 5 mM MgCl2, 37° C., 0 to 13 mM OHB
T1 construct: coupled LdhA/NADH assay
T1 sequence (P0A955 1-213): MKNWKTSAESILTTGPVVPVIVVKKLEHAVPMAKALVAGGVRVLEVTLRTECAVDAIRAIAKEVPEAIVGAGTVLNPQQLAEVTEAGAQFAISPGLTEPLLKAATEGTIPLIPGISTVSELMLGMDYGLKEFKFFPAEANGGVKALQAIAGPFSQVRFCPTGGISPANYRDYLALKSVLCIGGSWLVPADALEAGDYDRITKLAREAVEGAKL

[2] = system: rhmA; assay: Transcriptomic analysis during DHB fermentation: aldolase gene expression; assay type: cell-based, Escherichia coli; conditions: in presence of significant amount of DHB
[3] = system: garL; assay: as above; assay type: cell-based, Escherichia coli; conditions: in presence of significant amount of DHB
[4] = system: yagE; assay: as above; assay type: cell-based, Escherichia coli; conditions: in presence of significant amount of DHB
[5] = system: YjhH; assay: as above; assay type: cell-based, Escherichia coli; conditions: in presence of significant amount of DHB
[6] = system: yfaU; assay: as above; assay type: cell-based, Escherichia coli; conditions: in presence of significant amount of DHB
[7] = substrate: O=C(O)C(=O)CCO; assay: purified protein, by the assay type; assay type: biochemical, Escherichia coli; conditions: Tris-HCl 50 mM pH 7.5, 5 mM MgCl2, 37° C., 0 to 13 mM OHB
[8] = In vivo capacity to degrade OHB by deletion of genes encoding pyruvate aldolase; assay type: cell-based, Escherichia coli; conditions: E. coli, gene deletion strains incubated with DHB
Excerpt: We measured production of formate in strains that were deleted for one of these aldolase encoding gene.

[9] = variant obtained by in vivo evolution (Bouzon et al., 2017); cited from earlier work

Molecule: O=C(O)C(=O)CCO [OHB, 2-oxo-4-hydroxybutyrate]
- Km [1]: > 20000 µM

Molecule: O=C(O)C(O)CCO (racemic) [DHB, 2,4-dihydroxybutyric acid]
- Maximal Expression [2]: 1.14
- Minimal Expression [2]: 0.98
- Maximal Expression [3]: 1.32
- Minimal Expression [3]: 1.06
- Maximal Expression [4]: 13.33
- Minimal Expression [4]: 1.82
- Maximal Expression [5]: 3.33
- Minimal Expression [5]: 1.25
- Maximal Expression [6]: 1.09
- Minimal Expression [6]: 0.9

B1: Escherichia coli pyruvate aldolase YagE (E.C. 4.1.2.28) (Escherichia coli K-12) (protein)
chain: MPQSALFTGIIPPVSTIFTADGQLDKPGTAALIDDLIKAGVDGLFFLGSGGEFSQLGAEERKAIARFAIDHVDRRVPVLIGTGGTNARETIELSQHAQQAGADGIVVINPYYWKVSEANLIRYFEQVADSVTLPVMLYNFPALTGQDLTPALVKTLADSRSNIIGIKDTIDSVAHLRSMIHTVKGAHPHFTVLCGYDDHLFNTLLLGGDGAISASGNFAPQVSVNLLKAWRDGDVAKAAGYHQTLLQIPQMYQLDTPFVNVIKEAIVLCGRPVSTHVLPPASPLDEPRKAQLKTLLQQLKLC
notes: coupled LdhA/NADH assay
- Km ([7]; other: YagE): 350 µM
- Vmax ([7]; other: YagE): 0.63 µmol/min/mg
- kcat ([7]; other: YagE): 0.04 s⁻¹
- kcat/Km ([7]; other: YagE): 115 M⁻¹ s⁻¹

B2: YagE: E. coli pyruvate aldolase, E.C. 4.1.2.28, natural substrate 2-keto-3-deoxy-D-arabinonate; His-tagged recombinant protein (protein, UniProt P75682 1-302, looked up)
Putative …: MPQSALFTGIIPPVSTIFTADGQLDKPGTAALIDDLIKAGVDGLFFLGSGGEFSQLGAEERKAIARFAIDHVDRRVPVLIGTGGTNARETIELSQHAQQAGADGIVVINPYYWKVSEANLIRYFEQVADSVTLPVMLYNFPALTGQDLTPALVKTLADSRSNIIGIKDTIDSVAHLRSMIHTVKGAHPHFTVLCGYDDHLFNTLLLGGDGAISASGNFAPQVSVNLLKAWRDGDVAKAAGYHQTLLQIPQMYQLDTPFVNVIKEAIVLCGRPVSTHVLPPASPLDEPRKAQLKTLLQQLKLC
modifications: His tag
notes: E. coli pyruvate aldolase, E.C; 4.1.2.28, natural substrate 2-keto-3-deoxy-D-arabinonate; His-tagged recombinant protein
- function on OHB in vivo [8]: most efficient to degrade OHB in vivo

B3: YfaU: E. coli pyruvate aldolase, E.C. 4.1.2.53, natural substrate 2-keto-3-deoxy-L-rhamnonate (protein, UniProt P76469 1-267, looked up)
2-keto-3-deoxy-L-rhamnonate …: MNALLSNPFKERLRKGEVQIGLWLSSTTAYMAEIAATSGYDWLLIDGEHAPNTIQDLYHQLQAVAPYASQPVIRPVEGSKPLIKQVLDIGAQTLLIPMVDTAEQARQVVSATRYPPYGERGVGASVARAARWGRIENYMAQVNDSLCLLVQVESKTALDNLDEILDVEGIDGVFIGPADLSASLGYPDNAGHPEVQRIIETSIRRIRAAGKAAGFLAVAPDMAQQCLAWGANFVAVGVDTMLYSDALDQRLAMFKSGKNGPRIKGSY
- function on OHB in vivo [8]: do not have any function on OHB in vivo

B4: AlaC^A142PY275D: variant of alanine-α-ketoglutarate transaminase from E coli Ec-AlaC, obtained by in vivo evolution (Bouzon et al., 2017) (protein, UniProt P77434 1-412, looked up, variant A142P Y275D)
Glutamate-pyruvate …: MADTRPERRFTRIDRLPPYVFNITAELKMAARRRGEDIIDFSMGNPDGATPPHIVEKLCTVAQRPDTHGYSTSRGIPRLRRAISRWYQDRYDVEIDPESEAIVTIGSKEGLAHLMLATLDHGDTVLVPNPSYPIHIYGAVIPGAQVRSVPLVEGVDFFNELERAIRESYPKPKMMILGFPSNPTAQCVELEFFEKVVALAKRYDVLVVHDLAYADIVYDGWKAPSIMQVPGARDVAVEFFTLSKSYNMAGWRIGFMVGNKTLVSALARIKSYHDDGTFTPLQVAAIAALEGDQQCVRDIAEQYKRRRDVLVKGLHEAGWMVEMPKASMYVWAKIPEPYAAMGSLEFAKKLLNEAKVCVSPGIGFGDYGDTHVRFALIENRDRIRQAIRGIKAMFRADGLLPASSKHIHENAE
- higher catalytic activity on homoserine [9]: 100 fold

B5: YjhH: E. coli pyruvate aldolase, E.C. 4.1.2.28, natural substrate 2-keto-3-deoxy-D-arabinonate; His-tagged recombinant protein (protein, UniProt P39359 1-301, looked up)
Probable …: MKKFSGIIPPVSSTFHRDGTLDKKAMREVADFLINKGVDGLFYLGTGGEFSQMNTAQRMALAEEAVTIVDGRVPVLIGVGSPSTDEAVKLAQHAQAYGADGIVAINPYYWKVAPRNLDDYYQQIARSVTLPVILYNFPDLTGQDLTPETVTRLALQNENIVGIKDTIDSVGHLRTMINTVKSVRPSFSVFCGYDDHLLNTMLLGGDGAITASANFAPELSVGIYRAWREGDLATAATLNKKLLQLPAIYALETPFVSLIKYSMQCVGLPVETYCLPPILEASEEAKDKVHVLLTAQGILPV
modifications: His tag
notes: as for B2
- function on OHB in vivo [8]: most efficient to degrade OHB in vivo

B6: Escherichia coli pyruvate aldolase DgoA (E.C. 4.1.2.21) (Escherichia coli K-12) (protein)
chain: MQWQTKLPLIAILRGITPDEALAHVGAVIDAGFDAVEIPLNSPQWEQSIPAIVDAYGDKALIGAGTVLKPEQVDALARMGCQLIVTPNIHSEVIRRAVGYGMTVCPGCATATEAFTALEAGAQALKIFPSSAFGPQYIKALKAVLPSDIAVFAVGGVTPENLAQWIDAGCAGAGLGSDLYRAGQSVERTAQQAAAFVKAYREAVQ
notes: coupled LdhA/NADH assay
- Km ([7]; other: DgoA): 2800 µM
- Vmax ([7]; other: DgoA): 0.04 µmol/min/mg
- kcat ([7]; other: DgoA): 0.012 s⁻¹
- kcat/Km ([7]; other: DgoA): 4.7 M⁻¹ s⁻¹

B7: GarL: E. coli pyruvate aldolase, E.C. 4.1.2.20, natural substrate 5-dehydro-4-deoxy-D-glucarate (protein, UniProt P23522 1-256, looked up)
5-keto-4-deoxy-D-glucarate …: MNNDVFPNKFKAALAAKQVQIGCWSALSNPISTEVLGLAGFDWLVLDGEHAPNDISTFIPQLMALKGSASAPVVRVPTNEPVIIKRLLDIGFYNFLIPFVETKEEAELAVASTRYPPEGIRGVSVSHRANMFGTVADYFAQSNKNITILVQIESQQGVDNVDAIAATEGVDGIFVGPSDLAAALGHLGNASHPDVQKAIQHIFNRASAHGKPSGILAPVEADARRYLEWGATFVAVGSDLGVFRSATQKLADTFKK
- function on OHB in vivo [8]: do not have any function on OHB in vivo
